Source: patent US20180311331A1, “PROGNOSIS AND TREATMENT OF SQUAMOUS CELL CARCINOMAS” (THE REGENTS OF THE UNIVERSITY OF COLORADO, a body corporate, priority 2015, published 2018)

Legend:
[1] = tested on: MDSCs; details: without any effect on B and T cells, NK cells, or macrophages; cited from earlier work
[2] = tested on: CD8+ T, NK and Treg cells; assay: Immune cell populations by flow cytometry in wildtype B6 mice bearing Cxcl14-expressing MOE/E6E7 cells; format: in vivo, mouse
Experimental: MOE/E6E7 cells with Cxcl14 (clones #8 and #16) or vector were injected into the right flank of B6 mice (n=3, each group). Tumor (A) and lymph nodes (B) tissues were harvested at 21 days post injection. Percentage of immune cell populations was determined by flow cytometry.
MOE/E6E7 cell clones expressing Cxcl14 (8 and 16) and one vector containing MOE/E6E7 cell clone were injected into the rear right flank of B6 mice (n=3, each group). Spleen was harvested at 21 days post injection and analyzed by flow cytometry. Relative abundance of Treg cells was determined using anti-CD4 and CD25 antibodies.
(§1) CXCL14 is an evolutionary-conserved chemokine showing 98% homology between human CXCL14 and murine Cxcl14. To determine whether CXCL14 affects tumor growth in vivo, the inventors studied mouse oropharyngeal epithelial cells (MOE/E6E7) that form tumors in immunocompetent syngeneic C57BL/6 (B6) mice. […] To test tumor suppressor functions of CXCL14, the inventors established MOE/E6E7 cell lines that re-expressed their physiological levels of Cxcl14. […] To characterize immune cell infiltration regulated by Cxcl14 expression, the inventors analyzed various immune cells in tumor tissue, tumor draining lymph node (TDLN), and in spleen harvested from the wildtype B6 mice at 21 days after injection with a control or with Cxcl14 expressing MOE/E6E7 cells. […]

[3] = tested on: splenocytes isolated from B6 mice; assay: In vitro migration assay using the Transwell system; format: cell-based, mouse
Experimental: MOE cells with Cxcl14 or vector were cultured on the bottom chamber of a Transwell. Splenocytes were added to the upper chamber. After 12 hr incubation, migrated splenocytes to the bottom chamber were collected and analyzed by flow cytometry.
as §1
(§2) To determine whether CXCL14 affects tumor growth in vivo, the inventors utilized an HNSCC mouse model with MOE/E6E7 cells that form tumors in immunocompetent syngeneic mice. […] Next, the inventors determined whether CXCL14 directly induces chemotaxis of CD8^+ T and NK cells using the Transwell system and splenocytes isolated from B6 mice.

[4] = molecular target: T1, IL-8 (Homo sapiens, UniProt P10145); details: another study; cited from earlier work
T1 sequence (P10145 21-99): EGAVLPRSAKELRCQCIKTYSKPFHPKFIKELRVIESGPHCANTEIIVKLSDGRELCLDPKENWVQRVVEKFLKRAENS

[5] = tested on: myeloid-derived suppressor cells (MDSC); assay: MDSC abundance by flow cytometry in tumor and spleen of Rag1-/- mice; format: in vivo, mouse; details: mice injected with MOE/E6E7 cells re-expressing Cxcl14 vs empty vector, 23 days post injection
Experimental: MOE/E6E7 cell clones expressing Cxcl14 (8 and 16) and one vector containing MOE/E6E7 cell clone were injected into Rag1−/− mice (n=4, each group). Tumor (A) and spleen (B) were harvested at 23 days post injection, homogenized, and analyzed by flow cytometry. Relative abundance of MDSC cells (A & B) was determined using anti-MHCII, anti-Gr1, and anti-CD11b+ antibodies.
The chemokine receptors CXCR1 and CXCR2 are of primary importance for the migration of granulocytes to sites of inflammation. A recent study has shown that CXCR2 is also required for MDSC infiltration into tumors for cancer development. Additionally, blocking CXCR2-mediated MDSC infiltration enhances efficacy of anti-PD1 therapy. […] Thus, it is likely that CXCR2 ligands produced by HNSCC cells recruit MDSCs into the TME, and that CXCL14 expression interferes with IL-8 mediated MDSC infiltration. Thus, it will be verified that CXCL14 expression in HPV+ HNSCC cells reverses the immunosuppressive microenvironment by inhibiting Cxcr2-mediated MDSC expansion and infiltration. These experiments will determine novel mechanisms by which downregulation of CXCL14 triggers immune suppression in the TME.

[6] = tested on: MOE/E6E7 cells; assay: Tumor growth and survival after injection of MOE/E6E7 cells expressing Cxcl14 into wildtype B6 mice; format: in vivo, mouse; details: wildtype B6 mice injected with MOE/E6E7 cells expressing Cxcl14
Experimental: (§3) Two MOE/E6E7 cell clones expressing Cxcl14 (clones 8 and 16) and one vector containing MOE/E6E7 cell clone were injected into the rear right flank of wildtype (A & B) and Rag1−/− (C & D) B6 mice (n=10, each group of wildtype; n=7, each group of Rag1−/). (A & C) Tumor growth was determined every week by the formula: volume=(width) 2×length. Survival rates were analyzed using a Kaplan-Meier estimator. (B & D) Time-to-event was determined for each group (vector only, Cxcl14-clone 8, Cxcl14-clone 16) with the event being tumor burden larger than 2,500 mm3. Deaths not associated with tumor were censored. P-values were determined by the Log-rank test.
(§4) CXCL14 is an evolutionary-conserved chemokine showing 98% homology between human CXCL14 and murine Cxcl14. […] To characterize immune cell infiltration regulated by Cxcl14 expression, the inventors analyzed various immune cells in tumor tissue, tumor draining lymph node (TDLN), and in spleen harvested from the wildtype B6 mice at 21 days after injection with a control or with Cxcl14 expressing MOE/E6E7 cells. […]
as §2

[7] = tested on: MOE/E6E7 cells; assay: Tumor growth and survival after injection of MOE/E6E7 cells expressing Cxcl14 into Rag1-/- B6 mice; format: in vivo, mouse
Experimental: as §3, §4, §2

Nc1ccn([C@@H]2O[C@H](CO)[C@@H](O)C2(F)F)c(=O)n1 [gemcitabine]
MDSC elimination in tumor-bearing mice [1]: selectively eliminates MDSCs through apoptosis

B1: Cxcl14: chemokine, approximately 9.5 kD secreted protein; tested by re-expression in MOE/E6E7 tumor cells (clones 8 and 16) (protein, UniProt Q9WUQ5 23-99, looked up)
C-X-C motif chemokine 14: SKCKCSRKGPKIRYSDVKKLEMKPKYPHCEEKMVIVTTKSMSRYRGQEHCLHPKLQSTKRFIKWYNAWNEKRRVYEE
Treg cells in spleens ([2]; B6 mice with tumors re-expressing Cxcl14, 21 days post injection): significantly decreased
Percentages of CD8+ T and NK cells in tumor tissues and TDLNs ([2]; wildtype B6 mice, 21 days after injection, vs vector containing cells): highly increased
Migration of CD8+ T and NK cells to Cxcl14 expressing HNSCC cells ([3]; 12 hr incubation, compared to vector containing HNSCC cells): 3-4 fold
Migration of macrophages and CD4+ T cells ([3]; CXCL14 expressing MOE/E6E7 cells, splenocytes from B6 mice): little effect
Binding to IL-8 [4]: directly binds to IL-8
MDSCs in tumors and spleens [5]: significantly decreased
Tumor clearance [6]: a majority of B6 mice injected with MOE/E6E7 cells expressing Cxcl14 cleared tumors
Time to succumb to tumor burden ([7]; Rag1-/- B6 mice injected with MOE/E6E7 cells re-expressing Cxcl14): ≤ 32 days post injection
Tumor growth ([7]; Rag1-/- mice injected with Cxcl14 expressing MOE/E6E7 cells): delayed tumor growth
